We go through one substance from PMC3731240.

Holding throughout (assay): SPR
Background: In SPR one partner is held on a chip, and binding of the other changes the refractive index at the surface.

The target in assay [1] is Ghfp^M4 (R288H) (Neisseria gonorrhoeae strain FA1090).
The target in assay [2] is Ghfp^M4–5 (R288H and D318G) (Neisseria gonorrhoeae strain FA1090).
The target of assay [3] is factor H binding protein (fHbp) V3.45, recombinant, wild type (Neisseria meningitidis) (UniProt E6MV22).

In general, Kd refers to a measure of binding affinity in units of concentration. “complement control protein (CCP) domains 6 and 7 of fH (fH6–7) (domain or fragment)”: the values for the Kd in assay [1], in assay [2] and in assay [3] were 16 nM, 2 nM and 1 nM, respectively.
